According to the Human Domainome abundance scans (Beltran et al. 2025):
± gives the uncertainty stated by the source.

B1: Glucocorticoid receptor, residues 419 to 494; numbered along this chain, P04150 (parent)
chain: KLCLVCSDEASGCHYGVLTCGSCKVFFKRAVEGQHNYLCAGRNDCIIDKIRRKNCPACRYRKCLQAGMNLEARKTK

Variants of: B1
Assay: abundance fitness (aPCA) (normalised: wild type 0, dead -1); higher = more abundant; growth selection in yeast, the domain comes from the species named
Conditions: Homo sapiens

Variant	abundance fitness
KLCLVCSDEASGCHYGVLTCGSCAVFFKRAVEGQHNYLCAGRNDCIIDKIRRKNCPACRYRKCLQAGMNLEARKTK [K24A]	-0.019 ± 0.05
KLCLVCSDEASGCHYGVLTCGSCKVFFKRAVEGQHNYLCAGRNDCIIDKIRRKNCPDCRYRKCLQAGMNLEARKTK [A57D]	-0.182 ± 0.067
KLCLVCSDEASGCHYGVLTCGSCKVFFKRAVEGQHAYLCAGRNDCIIDKIRRKNCPACRYRKCLQAGMNLEARKTK [N36A]	-0.012 ± 0.036
KLCLVCSDEASGCHYGVLTCGSCKVFFKRAVEGQHNYLCAGRNDCIIDKIRRKNCPACRYRKCLQAGHNLEARKTK [M68H]	-0.551 ± 0.15
KLCLVCSDEASGCHYGVLTCGSCKVFFKRAVEGQHNYLCAGRNDCIIDKIRRKNCPACRYRKCLQAGMNLSARKTK [E71S]	-0.016 ± 0.041
KLCLVCSDEASGCHYGVLTCNSCKVFFKRAVEGQHNYLCAGRNDCIIDKIRRKNCPACRYRKCLQAGMNLEARKTK [G21N]	-0.15 ± 0.09
KLCLVCSDEASGCHYGVLTCGSCKVFFKRAVEGQHNYLCAGRNDCIIDKIRRKNCPACRYRKDLQAGMNLEARKTK [C63D]	-0.915 ± 0.24
KLCLVCIDEASGCHYGVLTCGSCKVFFKRAVEGQHNYLCAGRNDCIIDKIRRKNCPACRYRKCLQAGMNLEARKTK [S7I]	-0.725 ± 0.16
KLCKVCSDEASGCHYGVLTCGSCKVFFKRAVEGQHNYLCAGRNDCIIDKIRRKNCPACRYRKCLQAGMNLEARKTK [L4K]	0.109 ± 0.044
KLCLVCSDEASGCHYGVLTCGSCKVFFKRAYEGQHNYLCAGRNDCIIDKIRRKNCPACRYRKCLQAGMNLEARKTK [V31Y]	-0.034 ± 0.081
KLCFVCSDEASGCHYGVLTCGSCKVFFKRAVEGQHNYLCAGRNDCIIDKIRRKNCPACRYRKCLQAGMNLEARKTK [L4F]	-0.024 ± 0.065
KLCLYCSDEASGCHYGVLTCGSCKVFFKRAVEGQHNYLCAGRNDCIIDKIRRKNCPACRYRKCLQAGMNLEARKTK [V5Y]	-0.631 ± 0.19
KLCLVCSDEASGCHYGVLTCGSCKVFFKRAVEGQHNYLCAGRNDCIIDKIRRKNCPACRYRKALQAGMNLEARKTK [C63A]	-0.28 ± 0.039
KLCLVCSDEASGCHYGVLTCGSCKVFFKRAVEGQHNYLCAGRNDCIIDKIRRKNCPACRYRKCAQAGMNLEARKTK [L64A]	-0.154 ± 0.039
KLCLVCSDEASGCHYGVLTCGSCKVFFKRAVEGQHNYLCAGRNDCIIDKIRRKNCPACRYSKCLQAGMNLEARKTK [R61S]	-0.004 ± 0.038
KLCLVCSDEASGCHYGVLTCGSCKVFFKRAVEGQHNYLCARRNDCIIDKIRRKNCPACRYRKCLQAGMNLEARKTK [G41R]	0.02 ± 0.03
KLCLVCSDEASGCHYGVLTCGSCKVFFKRAVEGQHNYLCAGRNDCIIDKIRRKNCPACRYRQCLQAGMNLEARKTK [K62Q]	-0.066 ± 0.049
KLCLVCSDEASGCHYGVLTCGSCKVFFKRAVEGQHNYLCAGRNDCIIHKIRRKNCPACRYRKCLQAGMNLEARKTK [D48H]	-0.449 ± 0.14
KLCLSCSDEASGCHYGVLTCGSCKVFFKRAVEGQHNYLCAGRNDCIIDKIRRKNCPACRYRKCLQAGMNLEARKTK [V5S]	-1.03 ± 0.17
KLCLTCSDEASGCHYGVLTCGSCKVFFKRAVEGQHNYLCAGRNDCIIDKIRRKNCPACRYRKCLQAGMNLEARKTK [V5T]	-0.742 ± 0.11
KLCLVCSDEASGCHYGVLTCGSCKVFFKRAVYGQHNYLCAGRNDCIIDKIRRKNCPACRYRKCLQAGMNLEARKTK [E32Y]	-0.131 ± 0.065
KLCHVCSDEASGCHYGVLTCGSCKVFFKRAVEGQHNYLCAGRNDCIIDKIRRKNCPACRYRKCLQAGMNLEARKTK [L4H]	-0.141 ± 0.053
KLCLVCSDEASGCHYGVLTCGSCKVFFIRAVEGQHNYLCAGRNDCIIDKIRRKNCPACRYRKCLQAGMNLEARKTK [K28I]	-0.064 ± 0.078
KLCLVCSDEASGCHYGVLTCGSCKVFFKRAVEGQHNYLCAGRNDCIIDKIRRKNCPMCRYRKCLQAGMNLEARKTK [A57M]	-0.587 ± 0.066

Variant	abundance fitness
KLCLVCSDEASGCHYGVLTCGSCKVFFKRAVEHQHNYLCAGRNDCIIDKIRRKNCPACRYRKCLQAGMNLEARKTK [G33H]	-0.006 ± 0.067
KLCLVCSDEASGCHYGVLTCGSCKVFFKRAVEGQHNYLCAGRLDCIIDKIRRKNCPACRYRKCLQAGMNLEARKTK [N43L]	-0.123 ± 0.033
KLCLVCSDDASGCHYGVLTCGSCKVFFKRAVEGQHNYLCAGRNDCIIDKIRRKNCPACRYRKCLQAGMNLEARKTK [E9D]	-0.015 ± 0.077
KLCLVCSDEASGCHYGVLTCGSCKPFFKRAVEGQHNYLCAGRNDCIIDKIRRKNCPACRYRKCLQAGMNLEARKTK [V25P]	-0.614 ± 0.13
KLCLVTSDEASGCHYGVLTCGSCKVFFKRAVEGQHNYLCAGRNDCIIDKIRRKNCPACRYRKCLQAGMNLEARKTK [C6T]	-1.14 ± 0.24
KLCLVCSDRASGCHYGVLTCGSCKVFFKRAVEGQHNYLCAGRNDCIIDKIRRKNCPACRYRKCLQAGMNLEARKTK [E9R]	0.04 ± 0.032
KLCLVISDEASGCHYGVLTCGSCKVFFKRAVEGQHNYLCAGRNDCIIDKIRRKNCPACRYRKCLQAGMNLEARKTK [C6I]	-0.751 ± 0.16
KLCLVCSDEASGKHYGVLTCGSCKVFFKRAVEGQHNYLCAGRNDCIIDKIRRKNCPACRYRKCLQAGMNLEARKTK [C13K]	-0.018 ± 0.043
KLCLVCSDEASGCHYGVLTCGSCKVFFKRAVEGQHNYLCAGRNDCIIDKIRRKNCPACAYRKCLQAGMNLEARKTK [R59A]	-0.702 ± 0.067
KLCLVCSCEASGCHYGVLTCGSCKVFFKRAVEGQHNYLCAGRNDCIIDKIRRKNCPACRYRKCLQAGMNLEARKTK [D8C]	-0.105 ± 0.072
KLCLVCSDEASGCHYGVLTCGSCKVFFKRAVEGQHNYLCAGRNDPIIDKIRRKNCPACRYRKCLQAGMNLEARKTK [C45P]	-1.02 ± 0.16
KLCLVCADEASGCHYGVLTCGSCKVFFKRAVEGQHNYLCAGRNDCIIDKIRRKNCPACRYRKCLQAGMNLEARKTK [S7A]	0.098 ± 0.038
KLCLVCSDEASGCHYGVLTCGSCQVFFKRAVEGQHNYLCAGRNDCIIDKIRRKNCPACRYRKCLQAGMNLEARKTK [K24Q]	0.044 ± 0.06
KLCLVCSDEASGCHYGVLTCGSCKVFFKRAVEGQHNYLCAGRNDCIIDKIARKNCPACRYRKCLQAGMNLEARKTK [R51A]	-0.072 ± 0.037
KLCLVCSDEASGCHYGVLTCGSCKVFFKRAVEGQHNGLCAGRNDCIIDKIRRKNCPACRYRKCLQAGMNLEARKTK [Y37G]	-0.074 ± 0.04
KLCLVCSDEASGCHYGVLTCGSCKVFFKRAVEGQHNYLCAGRNDCIIDKIRRKNCPACRYRKCLQAGMNLEARATK [K74A]	-0.033 ± 0.049
KLCLVCSDEASGCHYGVLTCGSCKVFFKRAVEGQLNYLCAGRNDCIIDKIRRKNCPACRYRKCLQAGMNLEARKTK [H35L]	-0.025 ± 0.034
KLCLVCSDEASGCHYGVLTCGSCKVFFKRAMEGQHNYLCAGRNDCIIDKIRRKNCPACRYRKCLQAGMNLEARKTK [V31M]	-0.042 ± 0.049
KLCLVCSHEASGCHYGVLTCGSCKVFFKRAVEGQHNYLCAGRNDCIIDKIRRKNCPACRYRKCLQAGMNLEARKTK [D8H]	-0.203 ± 0.094
KLCLVCSDEASGCHYGVLTCGSCKVFFKRAVEGQHNYLCAGRNDCIIDKIRRKNCPACRYRKCLQACMNLEARKTK [G67C]	-0.534 ± 0.17
KLCLVCSDEASGCHYGVLTCGSCKVFFKRAVEGQHNYLCAGRNDCIIDKIRRKNCPACRYRKCLQAGMNLEAGKTK [R73G]	-0.021 ± 0.032
KLCLVCSDEASGCHYGVLTCGSCKVFFKRAVEGQHNYLCAGRNDCIIDKIRRKNCPACRYRKCKQAGMNLEARKTK [L64K]	-0.01 ± 0.045
KLDLVCSDEASGCHYGVLTCGSCKVFFKRAVEGQHNYLCAGRNDCIIDKIRRKNCPACRYRKCLQAGMNLEARKTK [C3D]	-0.653 ± 0.33
KLCLVCSDEASGCHYGVLTCGSCKVFFKRAVEGQHNYLCAGRNVCIIDKIRRKNCPACRYRKCLQAGMNLEARKTK [D44V]	-0.053 ± 0.036

Variant	abundance fitness
KLCLVCSDEASGCHYGVLTCGSCKVFFKRAVEGQHNYLCAGRNDCIIDKIRRKNCPACRYRKCLQAGMNLEAEKTK [R73E]	-0.015 ± 0.042
KLCLVCSDEASGCHYGVLTCGSCKVFFKRAVEGQHNYLCAYRNDCIIDKIRRKNCPACRYRKCLQAGMNLEARKTK [G41Y]	-0.123 ± 0.085
KLCLVCSDEASGCHYGVLTCGSCKVFFKRAVEGQHNYLCAGRNDCIEDKIRRKNCPACRYRKCLQAGMNLEARKTK [I47E]	-0.216 ± 0.046
KLCLVCSDEASGCHYGVLTCGSCKVFFKRAVEGQHNYLCAGRNDCIIDKIRRKRCPACRYRKCLQAGMNLEARKTK [N54R]	-0.053 ± 0.032
KLCLVCSDEASDCHYGVLTCGSCKVFFKRAVEGQHNYLCAGRNDCIIDKIRRKNCPACRYRKCLQAGMNLEARKTK [G12D]	-0.003 ± 0.058
KLCLVCSDEASGCHYGVLTCGSCKVFFKRAVEGQHNYLCAGRNDCIWDKIRRKNCPACRYRKCLQAGMNLEARKTK [I47W]	-0.542 ± 0.058
KLCLVCSDEASGCHYGVLTCGSCKVFFKRAVEGQHNYLCAGRNDCIIDKIRRKNCPAPRYRKCLQAGMNLEARKTK [C58P]	-0.842 ± 0.13
KLCLVCSDEASGCHYGVLTCGSCKVFFKRAVEGQHNYLCAGRNDCIIDKIRRKICPACRYRKCLQAGMNLEARKTK [N54I]	0.014 ± 0.094
KLCLRCSDEASGCHYGVLTCGSCKVFFKRAVEGQHNYLCAGRNDCIIDKIRRKNCPACRYRKCLQAGMNLEARKTK [V5R]	-0.669 ± 0.077
KLCLVCSDEASGCHYGVLTCGSCKVFFKRAVEGQHNYLCAGRNDCIIDKIRVKNCPACRYRKCLQAGMNLEARKTK [R52V]	-0.056 ± 0.036
KLCLVCLDEASGCHYGVLTCGSCKVFFKRAVEGQHNYLCAGRNDCIIDKIRRKNCPACRYRKCLQAGMNLEARKTK [S7L]	-0.017 ± 0.037
KLCLVCSDEASGCHYGVLTCGSCKVFFKRAVEGQHNYLCAGRNDCVIDKIRRKNCPACRYRKCLQAGMNLEARKTK [I46V]	-0.027 ± 0.031
KLCLVCSDEASGCHYGVLTCGSCKVFFKRAVEGQHNYLCAGRNDCIIDKIRRKNCPACRYRKCLQAGMNLEARKTL [K76L]	-0.001 ± 0.048
KLCLVCSDEASGCHYGVLTCGSCKVFFKRLVEGQHNYLCAGRNDCIIDKIRRKNCPACRYRKCLQAGMNLEARKTK [A30L]	-0.32 ± 0.043
KLCLVCSDEASGCHYPVLTCGSCKVFFKRAVEGQHNYLCAGRNDCIIDKIRRKNCPACRYRKCLQAGMNLEARKTK [G16P]	-0.302 ± 0.051
KLCLVCSDIASGCHYGVLTCGSCKVFFKRAVEGQHNYLCAGRNDCIIDKIRRKNCPACRYRKCLQAGMNLEARKTK [E9I]	-0.038 ± 0.065
KLCLVCSDEASGCHYGVLYCGSCKVFFKRAVEGQHNYLCAGRNDCIIDKIRRKNCPACRYRKCLQAGMNLEARKTK [T19Y]	-0.697 ± 0.22
KLCLVCSDEASGCHYGVLQCGSCKVFFKRAVEGQHNYLCAGRNDCIIDKIRRKNCPACRYRKCLQAGMNLEARKTK [T19Q]	-0.559 ± 0.067
KLCLVCSDEASGCHYGVLTCGSCKVFFKRAVEGQHNYLCAGRNDCIIDKIRRKNCPACRYRKCLQAGMNLEARKTP [K76P]	0.004 ± 0.073
KLCLVCSDEASGCHYGVLTCGSCKVFFKRAVEGQHNYLCAGRNDCIIDKIRRKNCPACRYRKCLQAGMNLEARKTV [K76V]	-0.001 ± 0.047
KLCLVCSDEASGCHYGVLTCGSCKVFFKRAVEGQHNYLCAGRNDCIIDKIRRKNCPLCRYRKCLQAGMNLEARKTK [A57L]	-0.582 ± 0.048
KLCLVCSDEASGCHYGVLTCGSCKVFFKRAVEGQHNYLCAGRNDCIIDKIRRKNCPACRYRKCLQAGLNLEARKTK [M68L]	-0.133 ± 0.035
KLCLVCSDEASGCHYGVLTCGSCKVFFKRAVEGQHSYLCAGRNDCIIDKIRRKNCPACRYRKCLQAGMNLEARKTK [N36S]	0.022 ± 0.038
KLCLVCSDEASGCHYGVLTCGSCKVFFKRAVEGQHNYLCAGRNDCIIDKWRRKNCPACRYRKCLQAGMNLEARKTK [I50W]	-0.02 ± 0.038
